From PMC7244511, “Phosphoproteomics identifies dual-site phosphorylation in an extended basophilic motif regulating FILIP1-mediated degradation of filamin-C” (Communications Biology, 2020) come the findings set out here.

The labels stand for the following.
B1: Myc-tagged FLNc d18–21 WT (expressed in C2 cells) [human] / FILIP1 CT-GFP (expressed in C2 cells) [not stated] (parent)
chain 1: MRSRNQGGESASDGHISCPKPSIIGNAGEKSLSEDAKKKKKSNRKEDDVMASGTVKRHLKTSGECERKTKKSLELSKEDLIQLLSIMEGELQAREDVIHMLKTEKTKPEVLEAHYGSAEPEKVLRVLHRDAILAQEKSIGEDVYEKPISELDRLEEKQKETYRRMLEQLLLAEKCHRRTVYELENEKHKHTDYMNKSDDFTNLLEQERERLKKLLEQEKAYQARKEKENAKRLNKLRDELVKLKSFALMLVDERQMHIEQLGLQSQKVQDLTQKLREEEEKLKAITSKSKEDRQKLLKLEVDFEHKASRFSQEHEEMNAKLANQESHNRQLRLKLVGLTQRIEELEETNKNLQKAEEELQELRDKIAKGECGNSSLMAEVENLRKRVLEMEGKDEEITKTESQCRELRKKLQEEEHHSKELRLEVEKLQKRMSELEKLEEAFSKSKSECTQLHLNLEKEKNLTKDLLNELEVVKSRVKELECSESRLEKAELSLKDDLTKLKSFTVMLVDERKNMMEKIKQEERKVDGLNKNFKVEQGKVMDVTEKLIEESKKLLKLKSEMEEKVYNLTRERDELIGKLKSEEEKSSELSCSVDLLKKRLDGIEEVEREITRGRSRKGSELTCPEDNKIKELTLEIERLKKRLQQLEVVEGDLMKTEDEYDQLEQKFRTEQDKANFLSQQLEEIKHQIAKNKAIEKGEVVSQEAELRHRFRLEEAKSRDLKAEVQALKEKIHELMNKEDQLSQLQVDYSVLQQRFMEEENKNKNMGQEVLNLTKELELSKRYSRALRPSVNGRRMVDVPVTSTGVQTDAVSGEAAEEETPAVFIRKSFQEENHIMSNLRQVGLKKPVERSSVLDRYPPAANELTMRKSWIPWMRKRENGPSITQEKGPRTNSSPGHPGEVVLSPKQGQPLHIRVTPDHENSTATLEITSPTSEEFFSSTTVIPTLGNQKPRITIIPSPNVMPQKQKSGDTTLGPERAMSPVTITTFSREKTPESGRGAFADRPTSPIQIMTVSTSAAPAEIAVSPESQEMPMGRTILKVTPEKQTVPTPVRKYNSNANIITTEDNKIHIHLGSQFKRSPGTSGEGVSPVITVRPVNVTAEKEVSTGTVLRSPRNHLSSRPGASKVTSTITITPVTTSSARGTQSVSGQDGSSQRPTPTRIPMSKGMKAGKPVVAAPGAGNLTKFEPRAETQSMKIELKKSAASSTTSLGGGKG
chain 2: TGDDSMRTSQLNVGTSTDVSLKITESDLSQLTASIRAPSGNEEPCLLKRLPNRHIGISFTPKEVGEHVVSVRKSGKHVTNSPFKILVGPSEIGDASKVRVWGKGLSEGHTFQVAEFIVDTRNAGYGGLGLSIEGPSKVDINCEDMEDGTCKVTYCPTEPGTYIINIKFADKHVPGSPFTVKVTGEGRMKESITRRRQAPSIATIGSTCDLNLKIPGNWFQMVSAQERLTRTFTRSSHTYTRTERTEISKTRGGETKREVRVEESTQVGGDPFPAVFGDFLGRERLGSFGSITRQQEGEASSQDMTAQVTSPSGKVEAAEIVEGEDSAYSVRFVPQEMGPHTVAVKYRGQHVPGSPFQFTVGPLGEGGAHKVRAGGTGLERGVAGVPAEFSIWTREAGAGGLSIAVEGPSKAEIAFEDRKDGSCGVSYVVQEPGDYEVSIKFNDEHIPDSPFVVPVASLSDDARR
B2: Myc-hFLNc d18–21 wild type (expressed in HEK293 cells) [human] / FILIP1 CT-GFP (expressed in HEK293 cells) [not stated] (parent)
chain 1: LELSKRYSRALRPSVNGRRMVDVPVTSTGVQTDAVSGEAAEEETPAVFIRKSFQEENHIMSNLRQVGLKKPVERSSVLDRYPPAANELTMRKSWIPWMRKRENGPSITQEKGPRTNSSPGHPGEVVLSPKQGQPLHIRVTPDHENSTATLEITSPTSEEFFSSTTVIPTLGNQKPRITIIPSPNVMPQKQKSGDTTLGPERAMSPVTITTFSREKTPESGRGAFADRPTSPIQIMTVSTSAAPAEIAVSPESQEMPMGRTILKVTPEKQTVPTPVRKYNSNANIITTEDNKIHIHLGSQFKRSPGTSGEGVSPVITVRPVNVTAEKEVSTGTVLRSPRNHLSSRPGASKVTSTITITPVTTSSARGTQSVSGQDGSSQRPTPTRIPMSKESIIIHQLRMNSR
chain 2: B1 chain 2

In the first experiment the parent is B1. The experiment is described as follows: co-immunoprecipitation (anti-Myc) with quantitative immunoblot. The conditions noted are these: C2 cells transiently expressing FILIP1 CT-GFP and Myc-hFLNc d18–21, n = 3, read off a plot.
In the case of chain 2 TGDDSMRTSQLNVGTSTDVSLKITESDLSQLTASIRAPSGNEEPCLLKRLPNRHIGISFTPKEVGEHVVSVRKSGKHVTNSPFKILVGPSEIGDASKVRVWGKGLSEGHTFQVAEFIVDTRNAGYGGLGLSIEGPSKVDINCEDMEDGTCKVTYCPTEPGTYIINIKFADKHVPGSPFTVKVTGEGRMKESITRRRQAPSIATIGSTCDLNLKIPGNWFQMVSAQERLTRTFTRSSHTYTRTERTEISKTRGGETKREVRVEESTQVGGDPFPAVFGDFLGRERLGDFGDITRQQEGEASSQDMTAQVTSPSGKVEAAEIVEGEDSAYSVRFVPQEMGPHTVAVKYRGQHVPGSPFQFTVGPLGEGGAHKVRAGGTGLERGVAGVPAEFSIWTREAGAGGLSIAVEGPSKAEIAFEDRKDGSCGVSYVVQEPGDYEVSIKFNDEHIPDSPFVVPVASLSDDARR [chain 2 S287D S290D], the ratio to parent was 0.82.

For chain 2 TGDDSMRTSQLNVGTSTDVSLKITESDLSQLTASIRAPSGNEEPCLLKRLPNRHIGISFTPKEVGEHVVSVRKSGKHVTNSPFKILVGPSEIGDASKVRVWGKGLSEGHTFQVAEFIVDTRNAGYGGLGLSIEGPSKVDINCEDMEDGTCKVTYCPTEPGTYIINIKFADKHVPGSPFTVKVTGEGRMKESITRRRQAPSIATIGSTCDLNLKIPGNWFQMVSAQERLTRTFTRSSHTYTRTERTEISKTRGGETKREVRVEESTQVGGDPFPAVFGDFLGRERLGAFGAITRQQEGEASSQDMTAQVTSPSGKVEAAEIVEGEDSAYSVRFVPQEMGPHTVAVKYRGQHVPGSPFQFTVGPLGEGGAHKVRAGGTGLERGVAGVPAEFSIWTREAGAGGLSIAVEGPSKAEIAFEDRKDGSCGVSYVVQEPGDYEVSIKFNDEHIPDSPFVVPVASLSDDARR [chain 2 S287A S290A], the ratio to parent worked out at 1.8.

The variants in the next experiment derive from B2. Described as above. The conditions noted are these: HEK293 cells transiently expressing FILIP1 CT-GFP and Myc-hFLNc d18–21, n = 3–6, read off a plot.
For the variant chain 2 TGDDSMRTSQLNVGTSTDVSLKITESDLSQLTASIRAPSGNEEPCLLKRLPNRHIGISFTPKEVGEHVVSVRKSGKHVTNSPFKILVGPSEIGDASKVRVWGKGLSEGHTFQVAEFIVDTRNAGYGGLGLSIEGPSKVDINCEDMEDGTCKVTYCPTEPGTYIINIKFADKHVPGSPFTVKVTGEGRMKESITRRRQAPSIATIGSTCDLNLKIPGNWFQMVSAQERLTRTFTRSSHTYTRTERTEISKTRGGETKREVRVEESTQVGGDPFPAVFGDFLGRERLGDFGDITRQQEGEASSQDMTAQVTSPSGKVEAAEIVEGEDSAYSVRFVPQEMGPHTVAVKYRGQHVPGSPFQFTVGPLGEGGAHKVRAGGTGLERGVAGVPAEFSIWTREAGAGGLSIAVEGPSKAEIAFEDRKDGSCGVSYVVQEPGDYEVSIKFNDEHIPDSPFVVPVASLSDDARR [chain 2 S287D S290D], the ratio to parent is 0.82.

Consider chain 2 TGDDSMRTSQLNVGTSTDVSLKITESDLSQLTASIRAPSGNEEPCLLKRLPNRHIGISFTPKEVGEHVVSVRKSGKHVTNSPFKILVGPSEIGDASKVRVWGKGLSEGHTFQVAEFIVDTRNAGYGGLGLSIEGPSKVDINCEDMEDGTCKVTYCPTEPGTYIINIKFADKHVPGSPFTVKVTGEGRMKESITRRRQAPSIATIGSTCDLNLKIPGNWFQMVSAQERLTRTFTRSSHTYTRTERTEISKTRGGETKREVRVEESTQVGGDPFPAVFGDFLGRERLGSFGDITRQQEGEASSQDMTAQVTSPSGKVEAAEIVEGEDSAYSVRFVPQEMGPHTVAVKYRGQHVPGSPFQFTVGPLGEGGAHKVRAGGTGLERGVAGVPAEFSIWTREAGAGGLSIAVEGPSKAEIAFEDRKDGSCGVSYVVQEPGDYEVSIKFNDEHIPDSPFVVPVASLSDDARR [chain 2 S290D], for which the ratio to parent amounted to 1.

For the variant chain 2 TGDDSMRTSQLNVGTSTDVSLKITESDLSQLTASIRAPSGNEEPCLLKRLPNRHIGISFTPKEVGEHVVSVRKSGKHVTNSPFKILVGPSEIGDASKVRVWGKGLSEGHTFQVAEFIVDTRNAGYGGLGLSIEGPSKVDINCEDMEDGTCKVTYCPTEPGTYIINIKFADKHVPGSPFTVKVTGEGRMKESITRRRQAPSIATIGSTCDLNLKIPGNWFQMVSAQERLTRTFTRSSHTYTRTERTEISKTRGGETKREVRVEESTQVGGDPFPAVFGDFLGRERLGSFGAITRQQEGEASSQDMTAQVTSPSGKVEAAEIVEGEDSAYSVRFVPQEMGPHTVAVKYRGQHVPGSPFQFTVGPLGEGGAHKVRAGGTGLERGVAGVPAEFSIWTREAGAGGLSIAVEGPSKAEIAFEDRKDGSCGVSYVVQEPGDYEVSIKFNDEHIPDSPFVVPVASLSDDARR [chain 2 S290A], the ratio to parent came to 1.

Consider chain 2 TGDDSMRTSQLNVGTSTDVSLKITESDLSQLTASIRAPSGNEEPCLLKRLPNRHIGISFTPKEVGEHVVSVRKSGKHVTNSPFKILVGPSEIGDASKVRVWGKGLSEGHTFQVAEFIVDTRNAGYGGLGLSIEGPSKVDINCEDMEDGTCKVTYCPTEPGTYIINIKFADKHVPGSPFTVKVTGEGRMKESITRRRQAPSIATIGSTCDLNLKIPGNWFQMVSAQERLTRTFTRSSHTYTRTERTEISKTRGGETKREVRVEESTQVGGDPFPAVFGDFLGRERLGAFGSITRQQEGEASSQDMTAQVTSPSGKVEAAEIVEGEDSAYSVRFVPQEMGPHTVAVKYRGQHVPGSPFQFTVGPLGEGGAHKVRAGGTGLERGVAGVPAEFSIWTREAGAGGLSIAVEGPSKAEIAFEDRKDGSCGVSYVVQEPGDYEVSIKFNDEHIPDSPFVVPVASLSDDARR [chain 2 S287A], for which the ratio to parent is 1.4.

Turning to chain 2 TGDDSMRTSQLNVGTSTDVSLKITESDLSQLTASIRAPSGNEEPCLLKRLPNRHIGISFTPKEVGEHVVSVRKSGKHVTNSPFKILVGPSEIGDASKVRVWGKGLSEGHTFQVAEFIVDTRNAGYGGLGLSIEGPSKVDINCEDMEDGTCKVTYCPTEPGTYIINIKFADKHVPGSPFTVKVTGEGRMKESITRRRQAPSIATIGSTCDLNLKIPGNWFQMVSAQERLTRTFTRSSHTYTRTERTEISKTRGGETKREVRVEESTQVGGDPFPAVFGDFLGRERLGDFGSITRQQEGEASSQDMTAQVTSPSGKVEAAEIVEGEDSAYSVRFVPQEMGPHTVAVKYRGQHVPGSPFQFTVGPLGEGGAHKVRAGGTGLERGVAGVPAEFSIWTREAGAGGLSIAVEGPSKAEIAFEDRKDGSCGVSYVVQEPGDYEVSIKFNDEHIPDSPFVVPVASLSDDARR [chain 2 S287D], the ratio to parent worked out at 1.

chain 2 TGDDSMRTSQLNVGTSTDVSLKITESDLSQLTASIRAPSGNEEPCLLKRLPNRHIGISFTPKEVGEHVVSVRKSGKHVTNSPFKILVGPSEIGDASKVRVWGKGLSEGHTFQVAEFIVDTRNAGYGGLGLSIEGPSKVDINCEDMEDGTCKVTYCPTEPGTYIINIKFADKHVPGSPFTVKVTGEGRMKESITRRRQAPSIATIGSTCDLNLKIPGNWFQMVSAQERLTRTFTRSSHTYTRTERTEISKTRGGETKREVRVEESTQVGGDPFPAVFGDFLGRERLGAFGAITRQQEGEASSQDMTAQVTSPSGKVEAAEIVEGEDSAYSVRFVPQEMGPHTVAVKYRGQHVPGSPFQFTVGPLGEGGAHKVRAGGTGLERGVAGVPAEFSIWTREAGAGGLSIAVEGPSKAEIAFEDRKDGSCGVSYVVQEPGDYEVSIKFNDEHIPDSPFVVPVASLSDDARR [chain 2 S287A S290A]: the ratio to parent was 2.1.
